{"source": "paper PMC3423576", "about": "(Journal of molecular biology, 2012)", "molecular_target": "the molecule itself", "assay": "crystal structure"}
{"protein": "CusB periplasmic membrane fusion protein (natural protein, E. coli, UniProt P77239 29-407, looked up) EPPAEKTSTAERKILFWYDPMYPNTRFDKPGKSPFMDMDLVPKYADEESSASGVRIDPTQTQNLGVKTATVTRGPLTFAQSFPANVSYNEYQYAIVQARAAGFIDKVYPLTVGDKVQKGTPLLDLTIPDWVEAQSEYLLLRETGGTATQTEGILERLRLAGMPEADIRRLIATQKIQTRFTLKAPIDGVITAFDLRAGMNIAKDNVVAKIQGMDPVWVTAAIPESIAWLVKDASQFTLTVPARPDKTLTIRKWTLLPGVDAATRTLQLRLEVDNADEALKPGMNAWLQLNTASEPMLLIPSQALIDTGSEQRVITVDADGRFVPKRVAVFQASQGVTALRSGLAEGEKVVSSGLFLIDSEANISGALERMRSESATHAH", "values": [{"measurement": "stoichiometry N", "value": 6}]}
